Data on 2 molecules can be found in patent publication US20110177111A1, “[…] AGAINST STAPHYLOCOCCUS AUREUS BIOFILMS […] WALL-[…]” (UNIVERSITY OF MARYLAND, BALTIMORE, priority 2008, published 2011).

Marks after values point to notes of the source that are not given here.

In assay [1] the test system is MRSA-M2. In words: Rabbit tibial osteomyelitis model: vaccination, MRSA challenge, then vancomycin therapy. To be noted: rabbits, 75 μg each antigen per injection.
Assay [2] deals with MRSA-M2. Put plainly: Rabbit tibial osteomyelitis (biofilm) infection model: vaccination, then intratibial MRSA-M2 challenge. The format is in vivo, Staphylococcus aureus. The protocol:
Animals were divided at random into groups.
Production of osteomyelitis. […] The infection was allowed to progress for 14 days.
Analysis of vaccine efficacy. Vaccine efficacy was evaluated in three ways.
Among these antigens, autolysin (AtlA) was one of the most immunoreactive. Because of its reported role in biofilm formation (31, 32) and its up-regulation during early biofilm growth (when an immune response could theoretically eradicate the biofilm), autolysin was tested as a vaccine. Purified recombinant glucosaminidase (one of the two protein components of AtlA) was injected into rabbits (three doses of 10 μg each, 10 days apart) and then animals were challenged using a tibial osteomyelitis infection.
Antibodies elicited by a single antigen vaccine may not provide adequate immunological recognition of the biofilm in vivo to enable complete microbial clearance. […] Therefore, the aforementioned antigens were tested as a multi-component vaccine. To this end, animals were vaccinated with 10 μg of each of four antigens: glucosaminidase, SA0688 (an ABC transporter lipoprotein), SA0037 (a conserved hypothetical protein), and SA0486 (a hypothetical lipoprotein), following the same dosing schedule as above. […] As well, vaccinated animals trended to lower CFU counts and an 88% reduction in bacterial loads in the tibia (FIG. 3A—quadrivalent). However, this reduction in bacterial populations was not statistically significant. Two doses of the combined vaccine at 15 μg each per dose were also studied, wherein increasing the prime and boost may lead to a more robust initial immune response when the biofilm is immature (and thus, enable clearance by the immune response).

Turning to `CN[C@H](CC(C)C)C(=O)N[C@H]1C(=O)N[C@@H](CC(N)=O)C(=O)N[C@H]2C(=O)N[C@H]3C(=O)N[C@H](C(=O)N[C@H](C(=O)O)c4cc(O)cc(O)c4-c4cc3ccc4O)[C@H](O)c3ccc(c(Cl)c3)Oc3cc2cc(c3O[C@@H]2O[C@H](CO)[C@@H](O)[C@H](O)[C@H]2O[C@H]2C[C@](C)(N)[C@H](O)[C@H](C)O2)Oc2ccc(cc2Cl)[C@H]1O` [PBS + vancomycin, vancomycin], in assay [1] (vancomycin 40 mg/kg twice daily for ten days), the “Percentage showing clinical signs of infection” value is recorded as 100%. The molecule further showed a Mean radiological score in assay [1] (vancomycin 40 mg/kg twice daily for ten days from 14 days after challenge, score 0 to 4+) of 2.1.

B1: Glucosaminidase: Purified recombinant S. aureus glucosaminidase (SEQ ID NO:1), one of the two protein components of autolysin AtlA (protein, listed as Staphylococcus aureus)
chain: MAKKFNYKLPSMVALTLVGSAVTAHQVQAAETTQDQTTNKNVLDSNKVKATTEQAKAEVKNPTQNISGTQVYQDPAIVQPKAANKTGNAQVNQKVDTTQVNGDTRATQSTTSNNAKPVTKSTNTTAPKTNNNVTSAGYSLVDDEDDNSENQINPELIKSAAKPAALETQYKAAAPKATPVAPKAKTEATPKVTTFSASAQPRSAAAAPKTSLPKYKPQVNSSINDYIRKNNLKAPKIEEDYTSYFPKYAYRNGVGRPEGIVVHDTANDRSTINGEISYMKNNYQNAFVHAFVDGDRIIETAPTDYLSWGVGAVGNPRFINVEIVHTHDYASFARSMNNYADYAATQLQYYGLKPDSAEYDGNGTVWTHYAVSKYLGGTDHADPHGYLRSHNYSYDQLYDLINEKYLIKMGKVAPWGTQSTTTPTTPSKPSTPSKPSTPSTGKLTVAANNGVAQIKPTNSGLYTTVYDKTGKATNEVQKTFAVSKTATLGNQKFYLVQDYNSGNKFGWVKEGDVVYNTAKSPVNVNQSYSIKPGTKLYTVPWGTSKQVAGSVSGSGNQTFKASKQQQIDKSIYLYGSVNGKSGWVSKAYLVDTAKPTPTPTPKPSTPTTNNKLTVSSLNGVAQINAKNNGLFTTVYDKTGKPTKEVQKTFAVTKEASLGGNKFYLVKDYNSPTLIGWVKQGDVIYNNAKSPVNVMQTYTVKPGTKLYSVPWGTYKQEAGAVSGTGNQTFKATKQQQIDKSIYLYGTVNGKSGWISKAYLAVPAAPKKAVAQPKTAVKAYAVTKPQTTQTVSKIAQVKPNNTGIRASVYEKTAKNGAKYADRTFYVTKERAHGNETYVLLNNTSHNIPLGWFNVKDLNVQNLGKEVKTTQKYTVNRSNNGLSMVPWGTKNQVILTGNNIAQGTFNATKQVSVGKDVYLYGTINNRTGWVNSKDLTAPTAVKPTTSAAKDYNYTYVIKNGNGYYYVTPNSDTAKYSLKAFNEQPFAVVKEQVINGQTWYYGKLSNGKLAWIKSTDLAKELIKYNQIGMTLNQVAQIQAGLQYKPQVQRVPGKWTDANFNDVKHAMDTKRLAQDPALKYQFLRLDQPQNISIDKINQFLKGKGVLENQGAAFNKAAQMYGINEVYLISHALLETGNGTSQLAKGADVVNNKVVTNSNTKYHNVFGIAAYDNDPLREGIKYAKQAGWDTVSKAIVGGAKFIGNSYVKAGQNTLYKMRWNPAHPGTHQYATDVDWANINAKIIKGYYDKIGEVGKYFDIPQYK
As to B1, the Mean radiological score in assay [2] (New Zealand White rabbits, three i.m. doses of 10 μg (each antigen), 10 days apart, 14 days after intratibial MRSA, score 0 to 4+ (Table 2)) is listed as 0.37*. In assay [2] (rabbits cleared of infection, 4 glucosaminidase, 5 multi-component animals, three doses of 10 μg (each antigen)), this molecule showed a Number cleared of 1. In addition, in assay [2] (rabbits, three doses of 10 μg (each antigen), non-weight bearing on affected leg, 14 days after MRSA inoculation), the “% showing clinical signs of infection” value was 0%. In assay [2] (rabbits, three doses of 10 μg each, 10 days apart), the “bacteriological signs of infection compared to PBS-vaccinated controls” value is given as “did not lead to significant differences”. For the same molecule, the “Mean CFU/grams bone in affected tibias” value in assay [2] (rabbits, three doses of 10 μg, FIG. 1, PBS controls 9.84×10^7) was 3.6×10^7 CFU/grams bone.
